Data as given in the supplement of paper PMC10724198.
± gives the standard deviation of the averaged measurements.

These sequences were tested on Saccharomyces cerevisiae (assay: protein stability index of tFT-peptide fusion (C-terminal peptide) (PSI (0-1 scale)); higher = more stable (slower turnover)). Conditions: genetic background: das1 deletion; temperature: 37 C.
Description: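 MPS profiling in S. cerevisiae of the tFT-X12 degron library: putative degron peptides plus stable controls, 12 aa, fused to the C-terminus of a sfGFP-mCherry timer. Cells are FACS-sorted into 8 mCherry/sfGFP bins and deep-sequenced. PSI runs from 0 (unstable) to 1 (stable). Backgrounds are wild type, das1Δ and doa10Δ at 30 °C, and wild type, das1Δ, cdc34-1 and cdc53-1 at 37 °C; 2-3 technical replicates each.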
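Note: PSI is a weighted mean of sequencing reads over stability bins, variants kept only with over 10 reads, mCherry proximal and sfGFP distal, peptide attached via GGGS linker.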

Going from GRWVLALCLVCG to GSLLNLSLRWLV, the protein stability index rises from 0.312 ± 0.0066 to 0.739 ± 0.0077.

Compared with GTMGWYSISRRL, GVCRFFCLVFCS is lower in protein stability index: 0.746 ± 0.012 for the first, 0.515 ± 0.018 for the second.

First: GVCSFFVCVFFV
Second: GVFLVWWVGFWV
The protein stability index of the first is lower: 0.41 ± 0.005 for the first, 0.431 ± 0.014 for the second.

First: GVLFHIVLHFMV
Second: GVMSICRWMISV
The protein stability index of the first is lower: 0.391 ± 0.0053 for the first, 0.4914 ± 0.0034 for the second.

Compared with GVQFRRPLIPIY, GVVCVLGFALFV is lower in protein stability index: 0.5467 ± 0.0036 for the first, 0.495 ± 0.0051 for the second.

Going from GWGVFFVMRIQV to GWLVGLGLVFFT, the protein stability index rises from 0.367 ± 0.017 to 0.661 ± 0.014.

Compared with GWRRRIWLCRLQ, GYLFICSWCEGF is lower in protein stability index: 0.7939 ± 0.004 for the first, 0.503 ± 0.029 for the second.

Going from HDRLRGVFWRVP to HGVRLHTVWVGG, the protein stability index falls from 0.74321 ± 0.00071 to 0.597 ± 0.0065.

Going from HLKKKLKIRLIN to HSRALLPYLSYH, the protein stability index rises from 0.698 ± 0.036 to 0.7732 ± 0.007.

Compared with HTYSFRLLFIFL, HVPPVFQASLSP is higher in protein stability index: 0.4762 ± 0.0044 for the first, 0.743 ± 0.015 for the second.

Going from ICFFQGVVVLFR to IFFVLVFFPGFF, the protein stability index rises from 0.48 ± 0.014 to 0.548 ± 0.014.

Going from IFHWLYLLIALI to IFLKFGLLRSLL, the protein stability index rises from 0.524 ± 0.0054 to 0.85 ± 0.031.

Going from IGMVSELLLFYP to IGSFYVLSFICQ, the protein stability index falls from 0.7676 ± 0.0068 to 0.626 ± 0.019.

First: IHTFSVVVVVAA
Second: IIFACFYGVFLM
The protein stability index of the first is lower: 0.135 ± 0.0088 for the first, 0.169 ± 0.024 for the second.

First: ILDRRPRTFALV
Second: IMGGLRHRIEVY
The protein stability index of the first is higher: 0.692 ± 0.013 for the first, 0.477 ± 0.012 for the second.

Compared with IRSLRPFLLPLF, IRVFSFLLFGCF is lower in protein stability index: 0.7184 ± 0.0066 for the first, 0.546 ± 0.03 for the second.

Going from ISFQFFVCLCAR to ISHLQCFFVVML, the protein stability index rises from 0.289 ± 0.0036 to 0.563 ± 0.016.

ISLSSLYVVMYV and IVFFVLFRFWRF are within error of each other in protein stability index: 0.428 ± 0.011 for the first, 0.46 ± 0.025 for the second.

Compared with IVRLGRWLGLSC, IYEAFLVFCLCG is lower in protein stability index: 0.709 ± 0.013 for the first, 0.543 ± 0.014 for the second.

KKKEIIKIIKIN and KKKKKKKIKIMS are within error of each other in protein stability index: 0.72 ± 0.048 for the first, 0.689 ± 0.018 for the second.

First: KKKNIYKVMKLE
Second: KLCVGLVLSFVC
The protein stability index of the first is higher: 0.72636 ± 0.00051 for the first, 0.5351 ± 0.0032 for the second.

Going from KWGRFQQVMVIN to KYQVIILQTRKI, the protein stability index rises from 0.641 ± 0.0096 to 0.765 ± 0.032.

First: LACGIDGYYWRH
Second: LAFMYFVCPRLA
The protein stability index of the first is higher: 0.73851 ± 0.00042 for the first, 0.6511 ± 0.0057 for the second.

Going from LAVVLVWVPGRW to LCFFLAFSFVFF, the protein stability index falls from 0.563 ± 0.019 to 0.382 ± 0.026.

First: LCFGMVELMWIY
Second: LCFRLVSYLCIN
The protein stability index of the first is lower: 0.521 ± 0.011 for the first, 0.6781 ± 0.0015 for the second.

Compared with LCGIFTFRLSLL, LCIYNFGWWFCV is lower in protein stability index: 0.706 ± 0.014 for the first, 0.6389 ± 0.0054 for the second.

Compared with LCLLCWIPCSFR, LCLLFLSFFFVC is lower in protein stability index: 0.649 ± 0.0077 for the first, 0.555 ± 0.086 for the second.

First: LCVVVICCLMAR
Second: LDLSSVFILYFN
The protein stability index of the first is lower: 0.265 ± 0.0071 for the first, 0.709 ± 0.048 for the second.

Going from LEGRFLACRGIC to LEVHGSCIFICV, the protein stability index falls from 0.728 ± 0.02 to 0.5674 ± 0.0018.

First: LFAIFLVVLLFR
Second: LFFPLPGILSFF
The protein stability index of the first is lower: 0.273 ± 0.0081 for the first, 0.7783 ± 0.0029 for the second.

Compared with LFFWVLTVMFVW, LFGRVLSGILSV is higher in protein stability index: 0.3199 ± 0.00034 for the first, 0.702 ± 0.028 for the second.

First: LFLLSHYALCFY
Second: LFLSFLLFVLAF
The protein stability index of the first is higher: 0.593 ± 0.028 for the first, 0.471 ± 0.036 for the second.

Compared with LFLSIFFFHLLF, LFPVFFPLFAPA is lower in protein stability index: 0.4359 ± 0.0036 for the first, 0.404 ± 0.018 for the second.

Going from LFSCTQLLPITA to LFSIFMSYRVYI, the protein stability index rises from 0.198 ± 0.0068 to 0.486 ± 0.017.

Going from LFSTRRWISVCA to LFSVLVFIYFVM, the protein stability index rises from 0.127 ± 0.011 to 0.288 ± 0.07.

Compared with LFTSGNSLVLVH, LFYVSFLFMLLF is higher in protein stability index: 0.3909 ± 0.00093 for the first, 0.459 ± 0.025 for the second.

Going from LGALFGRFWWYF to LGCLVWGGVWGV, the protein stability index falls from 0.795 ± 0.013 to 0.737 ± 0.025.

First: LGFSHTRAIFFV
Second: LGGCVSYINLLA
The protein stability index of the first is higher: 0.724 ± 0.0022 for the first, 0.6997 ± 0.0013 for the second.

Going from LGRFHLACLLFL to LGVLVVAFCGGC, the protein stability index falls from 0.6113 ± 0.004 to 0.541 ± 0.0069.

Same assay, conditions: genetic background: doa10 deletion; temperature: 30 C

First: GRWVLALCLVCG
Second: GSLLNLSLRWLV
The protein stability index of the first is higher: 0.164 ± 0.0086 for the first, 0.13932 ± 9.1e-05 for the second.

First: GTMGWYSISRRL
Second: GVCRFFCLVFCS
The protein stability index of the first is higher: 0.6585 ± 0.004 for the first, 0.494 ± 0.013 for the second.

First: GVCSFFVCVFFV
Second: GVFLVWWVGFWV
The protein stability index of the first is lower: 0.162 ± 0.008 for the first, 0.223 ± 0.0082 for the second.

First: GVLFHIVLHFMV
Second: GVMSICRWMISV
The protein stability index of the first is lower: 0.199 ± 0.017 for the first, 0.263 ± 0.013 for the second.

First: GVQFRRPLIPIY
Second: GVVCVLGFALFV
The protein stability index of the first is higher: 0.325 ± 0.011 for the first, 0.28 ± 0.014 for the second.

Compared with GWGVFFVMRIQV, GWLVGLGLVFFT is higher in protein stability index: 0.197 ± 0.016 for the first, 0.488 ± 0.02 for the second.

First: GWRRRIWLCRLQ
Second: GYLFICSWCEGF
The protein stability index of the first is higher: 0.41 ± 0.02 for the first, 0.352 ± 0.028 for the second.

Compared with HDRLRGVFWRVP, HGVRLHTVWVGG is higher in protein stability index: 0.263 ± 0.015 for the first, 0.347 ± 0.0076 for the second.

First: HLKKKLKIRLIN
Second: HSRALLPYLSYH
The protein stability index of the first is lower: 0.108 ± 0.01 for the first, 0.408 ± 0.013 for the second.

First: HTYSFRLLFIFL
Second: HVPPVFQASLSP
The protein stability index of the first is lower: 0.381 ± 0.013 for the first, 0.662 ± 0.011 for the second.

ICFFQGVVVLFR and IFFVLVFFPGFF are within error of each other in protein stability index: 0.3653 ± 0.0027 for the first, 0.359 ± 0.023 for the second.

Going from IFHWLYLLIALI to IFLKFGLLRSLL, the protein stability index rises from 0.2701 ± 0.0025 to 0.6161 ± 0.0027.

Compared with IGMVSELLLFYP, IGSFYVLSFICQ is lower in protein stability index: 0.63 ± 0.0085 for the first, 0.438 ± 0.024 for the second.

Compared with IHTFSVVVVVAA, IIFACFYGVFLM is higher in protein stability index: 0.0749 ± 0.0091 for the first, 0.282 ± 0.052 for the second.

Compared with ILDRRPRTFALV, IMGGLRHRIEVY is higher in protein stability index: 0.0946 ± 0.015 for the first, 0.23 ± 0.0031 for the second.

Compared with IRSLRPFLLPLF, IRVFSFLLFGCF is higher in protein stability index: 0.283 ± 0.004 for the first, 0.358 ± 0.012 for the second.

Going from ISFQFFVCLCAR to ISHLQCFFVVML, the protein stability index rises from 0.145 ± 0.005 to 0.3759 ± 0.0013.

Going from ISLSSLYVVMYV to IVFFVLFRFWRF, the protein stability index rises from 0.178 ± 0.0094 to 0.318 ± 0.02.

First: IVRLGRWLGLSC
Second: IYEAFLVFCLCG
The protein stability index of the first is lower: 0.215 ± 0.031 for the first, 0.284 ± 0.016 for the second.

First: KKKEIIKIIKIN
Second: KKKKKKKIKIMS
The protein stability index of the first is lower: 0.0624 ± 0.022 for the first, 0.176 ± 0.03 for the second.

KKKNIYKVMKLE and KLCVGLVLSFVC are within error of each other in protein stability index: 0.146 ± 0.043 for the first, 0.176 ± 0.0034 for the second.

KWGRFQQVMVIN and KYQVIILQTRKI are within error of each other in protein stability index: 0.136 ± 0.0045 for the first, 0.201 ± 0.064 for the second.

Compared with LACGIDGYYWRH, LAFMYFVCPRLA is lower in protein stability index: 0.6631 ± 0.0021 for the first, 0.245 ± 0.0083 for the second.

Compared with LAVVLVWVPGRW, LCFFLAFSFVFF is lower in protein stability index: 0.311 ± 0.0059 for the first, 0.289 ± 0.00096 for the second.

First: LCFGMVELMWIY
Second: LCFRLVSYLCIN
The protein stability index of the first is higher: 0.371 ± 0.047 for the first, 0.223 ± 0.0073 for the second.

Compared with LCGIFTFRLSLL, LCIYNFGWWFCV is lower in protein stability index: 0.245 ± 0.026 for the first, 0.121 ± 0.015 for the second.

Compared with LCLLCWIPCSFR, LCLLFLSFFFVC is lower in protein stability index: 0.486 ± 0.035 for the first, 0.229 ± 0.015 for the second.

Going from LCVVVICCLMAR to LDLSSVFILYFN, the protein stability index rises from 0.0806 ± 0.015 to 0.2653 ± 0.0025.

First: LEGRFLACRGIC
Second: LEVHGSCIFICV
The protein stability index of the first is lower: 0.144 ± 0.017 for the first, 0.336 ± 0.041 for the second.

Going from LFAIFLVVLLFR to LFFPLPGILSFF, the protein stability index rises from 0.297 ± 0.0092 to 0.484 ± 0.0073.

Going from LFFWVLTVMFVW to LFGRVLSGILSV, the protein stability index rises from 0.222 ± 0.011 to 0.474 ± 0.014.

Going from LFLLSHYALCFY to LFLSFLLFVLAF, the protein stability index falls from 0.333 ± 0.0045 to 0.302 ± 0.0039.

First: LFLSIFFFHLLF
Second: LFPVFFPLFAPA
The protein stability index of the first is higher: 0.439 ± 0.045 for the first, 0.206 ± 0.013 for the second.

Compared with LFSCTQLLPITA, LFSIFMSYRVYI is higher in protein stability index: 0.141 ± 0.013 for the first, 0.302 ± 0.03 for the second.

First: LFSTRRWISVCA
Second: LFSVLVFIYFVM
The protein stability index of the first is lower: 0.0486 ± 0.012 for the first, 0.17 ± 0.016 for the second.

Going from LFTSGNSLVLVH to LFYVSFLFMLLF, the protein stability index rises from 0.202 ± 0.0086 to 0.396 ± 0.0059.

Compared with LGALFGRFWWYF, LGCLVWGGVWGV is higher in protein stability index: 0.278 ± 0.012 for the first, 0.628 ± 0.021 for the second.

LGFSHTRAIFFV and LGGCVSYINLLA are within error of each other in protein stability index: 0.186 ± 0.01 for the first, 0.197 ± 0.024 for the second.

Going from LGRFHLACLLFL to LGVLVVAFCGGC, the protein stability index falls from 0.41 ± 0.0065 to 0.325 ± 0.017.
